The values below come from patent US20140087995A1 (published 2014).

Sequences and labels used below:
T1: human calcitonin receptor (human, UniProt P30988 25-474)
T1 sequence (looked up): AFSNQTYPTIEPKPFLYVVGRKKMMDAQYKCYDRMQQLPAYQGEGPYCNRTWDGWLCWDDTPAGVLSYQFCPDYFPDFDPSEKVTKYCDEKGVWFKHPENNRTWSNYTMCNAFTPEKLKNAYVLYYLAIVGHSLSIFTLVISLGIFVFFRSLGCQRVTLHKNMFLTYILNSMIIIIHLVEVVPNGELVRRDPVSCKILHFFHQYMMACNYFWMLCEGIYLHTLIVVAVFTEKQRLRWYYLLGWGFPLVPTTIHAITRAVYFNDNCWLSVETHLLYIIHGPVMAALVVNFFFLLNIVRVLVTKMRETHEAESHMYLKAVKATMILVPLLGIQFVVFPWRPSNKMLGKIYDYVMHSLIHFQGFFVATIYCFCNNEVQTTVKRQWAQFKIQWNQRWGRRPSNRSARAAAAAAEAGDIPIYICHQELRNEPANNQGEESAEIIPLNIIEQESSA

B1: N^ε1-[(4S)-4-carboxy-4-(19-carboxynonadecanoylamino)butanoyl]-[Glu14,Arg17,Pro21,Pro27,Pro34,Glu35]-h-amylin (peptide)
peptide: K([γGlu-C20 diacid])CNTATCATQRLAEFLRHSSPNFGAIPSSTNVGPETY-NH2
modifications: disulfide 2-7; N-terminus assumed
SMILES: CC[C@H](C)[C@H](NC(=O)[C@H](C)NC(=O)CNC(=O)[C@H](Cc1ccccc1)NC(=O)[C@H](CC(N)=O)NC(=O)[C@@H]1CCCN1C(=O)[C@H](CO)NC(=O)[C@H](CO)NC(=O)[C@H](Cc1c[nH]cn1)NC(=O)[C@H](CCCNC(=N)N)NC(=O)[C@H](CC(C)C)NC(=O)[C@H](Cc1ccccc1)NC(=O)[C@H](CCC(=O)O)NC(=O)[C@H](C)NC(=O)[C@H](CC(C)C)NC(=O)[C@H](CCCNC(=N)N)NC(=O)[C@H](CCC(N)=O)NC(=O)[C@@H](NC(=O)[C@H](C)NC(=O)[C@@H]1CSSC[C@H](NC(=O)[C@@H](N)CCCCNC(=O)CC[C@H](NC(=O)CCCCCCCCCCCCCCCCCCC(=O)O)C(=O)O)C(=O)N[C@@H](CC(N)=O)C(=O)N[C@@H]([C@@H](C)O)C(=O)N[C@@H](C)C(=O)N[C@@H]([C@@H](C)O)C(=O)N1)[C@@H](C)O)C(=O)N1CCC[C@H]1C(=O)N[C@@H](CO)C(=O)N[C@@H](CO)C(=O)N[C@H](C(=O)N[C@@H](CC(N)=O)C(=O)N[C@H](C(=O)NCC(=O)N1CCC[C@H]1C(=O)N[C@@H](CCC(=O)O)C(=O)N[C@H](C(=O)N[C@@H](Cc1ccc(O)cc1)C(N)=O)[C@@H](C)O)C(C)C)[C@@H](C)O
notes: synthetic peptide amide
B2: N{-1}-[(4S)-4-carboxy-4-(19-carboxynonadecanoylamino)butanoyl]-Gly[Arg1,His14,Arg17,Pro21,Pro27]-h-amylin (peptide)
peptide: {C20 diacid-γGlu}-GRCNTATCATQRLAHFLRHSSPNFGAIPSSTNVGSNTY-NH2
modifications: disulfide 3-8
SMILES: CC[C@H](C)[C@H](NC(=O)[C@H](C)NC(=O)CNC(=O)[C@H](Cc1ccccc1)NC(=O)[C@H](CC(N)=O)NC(=O)[C@@H]1CCCN1C(=O)[C@H](CO)NC(=O)[C@H](CO)NC(=O)[C@H](Cc1c[nH]cn1)NC(=O)[C@H](CCCNC(=N)N)NC(=O)[C@H](CC(C)C)NC(=O)[C@H](Cc1ccccc1)NC(=O)[C@H](Cc1c[nH]cn1)NC(=O)[C@H](C)NC(=O)[C@H](CC(C)C)NC(=O)[C@H](CCCNC(=N)N)NC(=O)[C@H](CCC(N)=O)NC(=O)[C@@H](NC(=O)[C@H](C)NC(=O)[C@@H]1CSSC[C@H](NC(=O)[C@H](CCCNC(=N)N)NC(=O)CNC(=O)CC[C@H](NC(=O)CCCCCCCCCCCCCCCCCCC(=O)O)C(=O)O)C(=O)N[C@@H](CC(N)=O)C(=O)N[C@@H]([C@@H](C)O)C(=O)N[C@@H](C)C(=O)N[C@@H]([C@@H](C)O)C(=O)N1)[C@@H](C)O)C(=O)N1CCC[C@H]1C(=O)N[C@@H](CO)C(=O)N[C@@H](CO)C(=O)N[C@H](C(=O)N[C@@H](CC(N)=O)C(=O)N[C@H](C(=O)NCC(=O)N[C@@H](CO)C(=O)N[C@@H](CC(N)=O)C(=O)N[C@H](C(=O)N[C@@H](Cc1ccc(O)cc1)C(N)=O)[C@@H](C)O)C(C)C)[C@@H](C)O
notes: N-terminal extension by Gly; synthetic peptide amide; also called compound 99
B3: N^-1-[(4S)-4-carboxy-4-(19-carboxynonadecanoylamino)butanoyl]-Gly[Arg1,His14,Arg17,Pro21,Pro27,His34]-h-amylin (peptide)
peptide: {C20 diacid-γGlu}-GRCNTATCATQRLAHFLRHSSPNFGAIPSSTNVGHNTY-NH2
modifications: disulfide 3-8
SMILES: CC[C@H](C)[C@H](NC(=O)[C@H](C)NC(=O)CNC(=O)[C@H](Cc1ccccc1)NC(=O)[C@H](CC(N)=O)NC(=O)[C@@H]1CCCN1C(=O)[C@H](CO)NC(=O)[C@H](CO)NC(=O)[C@H](Cc1c[nH]cn1)NC(=O)[C@H](CCCNC(=N)N)NC(=O)[C@H](CC(C)C)NC(=O)[C@H](Cc1ccccc1)NC(=O)[C@H](Cc1c[nH]cn1)NC(=O)[C@H](C)NC(=O)[C@H](CC(C)C)NC(=O)[C@H](CCCNC(=N)N)NC(=O)[C@H](CCC(N)=O)NC(=O)[C@@H](NC(=O)[C@H](C)NC(=O)[C@@H]1CSSC[C@H](NC(=O)[C@H](CCCNC(=N)N)NC(=O)CNC(=O)CC[C@H](NC(=O)CCCCCCCCCCCCCCCCCCC(=O)O)C(=O)O)C(=O)N[C@@H](CC(N)=O)C(=O)N[C@@H]([C@@H](C)O)C(=O)N[C@@H](C)C(=O)N[C@@H]([C@@H](C)O)C(=O)N1)[C@@H](C)O)C(=O)N1CCC[C@H]1C(=O)N[C@@H](CO)C(=O)N[C@@H](CO)C(=O)N[C@H](C(=O)N[C@@H](CC(N)=O)C(=O)N[C@H](C(=O)NCC(=O)N[C@@H](Cc1c[nH]cn1)C(=O)N[C@@H](CC(N)=O)C(=O)N[C@H](C(=O)N[C@@H](Cc1ccc(O)cc1)C(N)=O)[C@@H](C)O)C(C)C)[C@@H](C)O
notes: N-terminal extension by Gly; synthetic peptide amide; also called compound 100
B4: N^ε1-[(4S)-4-carboxy-4-[[(4S)-4-carboxy-4-(19-carboxynonadecanoylamino)butanoyl]amino]butanoyl]-[Glu14,Arg17,Pro23,Pro34,Glu35]-h-amylin (peptide)
peptide: K([γGlu-γGlu-C20 diacid])CNTATCATQRLAEFLRHSSNNPGAILSSTNVGPETY-NH2
modifications: disulfide 2-7; N-terminus assumed
SMILES: CC[C@H](C)[C@H](NC(=O)[C@H](C)NC(=O)CNC(=O)[C@@H]1CCCN1C(=O)[C@H](CC(N)=O)NC(=O)[C@H](CC(N)=O)NC(=O)[C@H](CO)NC(=O)[C@H](CO)NC(=O)[C@H](Cc1c[nH]cn1)NC(=O)[C@H](CCCNC(=N)N)NC(=O)[C@H](CC(C)C)NC(=O)[C@H](Cc1ccccc1)NC(=O)[C@H](CCC(=O)O)NC(=O)[C@H](C)NC(=O)[C@H](CC(C)C)NC(=O)[C@H](CCCNC(=N)N)NC(=O)[C@H](CCC(N)=O)NC(=O)[C@@H](NC(=O)[C@H](C)NC(=O)[C@@H]1CSSC[C@H](NC(=O)[C@@H](N)CCCCNC(=O)CC[C@H](NC(=O)CC[C@H](NC(=O)CCCCCCCCCCCCCCCCCCC(=O)O)C(=O)O)C(=O)O)C(=O)N[C@@H](CC(N)=O)C(=O)N[C@@H]([C@@H](C)O)C(=O)N[C@@H](C)C(=O)N[C@@H]([C@@H](C)O)C(=O)N1)[C@@H](C)O)C(=O)N[C@@H](CC(C)C)C(=O)N[C@@H](CO)C(=O)N[C@@H](CO)C(=O)N[C@H](C(=O)N[C@@H](CC(N)=O)C(=O)N[C@H](C(=O)NCC(=O)N1CCC[C@H]1C(=O)N[C@@H](CCC(=O)O)C(=O)N[C@H](C(=O)N[C@@H](Cc1ccc(O)cc1)C(N)=O)[C@@H](C)O)C(C)C)[C@@H](C)O
notes: synthetic peptide amide
B5: N^ε1-[(4S)-4-carboxy-4-[[(4S)-4-carboxy-4-(19-carboxynonadecanoylamino)butanoyl]amino]butanoyl]-[Ser14,Arg17,Pro21,Pro27,Pro34,Glu35]-h-amylin (peptide)
peptide: K([γGlu-γGlu-C20 diacid])CNTATCATQRLASFLRHSSPNFGAIPSSTNVGPETY-NH2
modifications: disulfide 2-7; N-terminus assumed
SMILES: CC[C@H](C)[C@H](NC(=O)[C@H](C)NC(=O)CNC(=O)[C@H](Cc1ccccc1)NC(=O)[C@H](CC(N)=O)NC(=O)[C@@H]1CCCN1C(=O)[C@H](CO)NC(=O)[C@H](CO)NC(=O)[C@H](Cc1c[nH]cn1)NC(=O)[C@H](CCCNC(=N)N)NC(=O)[C@H](CC(C)C)NC(=O)[C@H](Cc1ccccc1)NC(=O)[C@H](CO)NC(=O)[C@H](C)NC(=O)[C@H](CC(C)C)NC(=O)[C@H](CCCNC(=N)N)NC(=O)[C@H](CCC(N)=O)NC(=O)[C@@H](NC(=O)[C@H](C)NC(=O)[C@@H]1CSSC[C@H](NC(=O)[C@@H](N)CCCCNC(=O)CC[C@H](NC(=O)CC[C@H](NC(=O)CCCCCCCCCCCCCCCCCCC(=O)O)C(=O)O)C(=O)O)C(=O)N[C@@H](CC(N)=O)C(=O)N[C@@H]([C@@H](C)O)C(=O)N[C@@H](C)C(=O)N[C@@H]([C@@H](C)O)C(=O)N1)[C@@H](C)O)C(=O)N1CCC[C@H]1C(=O)N[C@@H](CO)C(=O)N[C@@H](CO)C(=O)N[C@H](C(=O)N[C@@H](CC(N)=O)C(=O)N[C@H](C(=O)NCC(=O)N1CCC[C@H]1C(=O)N[C@@H](CCC(=O)O)C(=O)N[C@H](C(=O)N[C@@H](Cc1ccc(O)cc1)C(N)=O)[C@@H](C)O)C(C)C)[C@@H](C)O
notes: synthetic peptide amide; also called compound 120

Numbered stars: 1 amine (or outer) side, 2 acyl side, 3 side chain; on linkers, the order of the positions; unused ones are H or OH. Bridge positions count the residues as written; N and C are the ends. Side chains are listed from the residue outwards. Ends that are not written are not given here. * marks the point of attachment. C20 diacid = O=C(O)CCCCCCCCCCCCCCCCCCC(=O)*; γGlu = O=C(O)[C@H](CCC(=O)[*:2])N[*:1]

In the test the target is T1, human calcitonin receptor. As to the kind of experiment: cell-based or functional assay.
Regarding B1, the “hCTR funct. EC50 (pM)” value was determined as 841 pM.

For B2, the “hCTR funct. EC50 (pM)” value was determined as 818 pM. In the case of B3, the “hCTR funct. EC50 (pM)” value is 1730 pM. With B4, the “hCTR funct. EC50 (pM)” value came out at 89600 pM.

In the case of B5, the “hCTR funct. EC50 (pM)” value came to 887 pM.
